From US20150246949A1, “Desmoglein 2 (DSG2) Binding Proteins and Uses Therefor” (UNIVERSITY OF WASHINGTON THROUGH ITS CENTER FOR …, priority 2012, published 2015)

Tested on: Ad3-GFP virus
Assay: Competition of Ad3-GFP virus infection on HeLa cells
Assay type: cell-based, adenovirus serotype 3 (Ad3)
Details: HeLa cells pre-incubated with knob, 100 pfu/cell Ad3-GFP, GFP at 18 hours
Procedure: FIG. 3. Competition of Ad3 virus by dimerized Ad3 knob mutants. A) Relative attachment of ^3H-labeled Ad3 virus in the presence of dimeric fiber knob mutants. 1.8×10^5 HeLa cells were incubated with Ad3 knob mutants at a concentration of 2.5 and 100 μg/ml on ice for 1 hour. Then 400 pfu/cell of ^3H-Ad3 virus was added on ice for another hour. Unbound virus particles were washed away. Attachment of virus particles incubated with PBS was taken as 100%. N=3. B) Competition of Ad3-GFP virus infection on HeLa cells. 1.5×10^5 HeLa cells were seeded into 24 well plates. Cells were incubated with the Ad3 knob mutants at increasing concentrations for one hour at room temperature. 100 pfu/cell of Ad3-GFP virus were then added and GFP expression was analyzed 18 hours later by flow cytometry. Left panel: percentage of GFP positive cells. Right panel: mean fluorescence intensity. N=3. The standard deviation was less than 10%. C) Relative attachment of ^3H-labeled Ad3 virus in the presence of dimeric fiber knob mutants with multiple mutations. The study was performed as described in […]) The standard deviation was less than 10%. D) Competition of Ad3-GFP virus infection on HeLa cells. The study was performed as described in C) The standard deviation was less than 10%.
FIG. 9. Analysis of dimeric Ad3 fiber knob mutants with increased affinity to DSG2. A) Competition of Ad3-GFP virus infection on HeLa cells with dimeric affinity-enhanced mutant Y250F and JO-1 (dimeric wt Ad3 fiber knob). The experimental setting is as described for FIG. 3C. left panel: percentage of GFP positive cells. Right panel: mean fluorescence intensity. N=3. The standard deviation was less than 10%. […] 100 pfu/cell of Ad3GFP virus were then added and GFP expression was analyzed 18 hours later. […]
Competition studies were performed on HeLa cells, which express DSG2 (42). […] Transduction was measured based on GFP expression (FIG. 3B). […] Dimeric Ad3 knob mutants with combined mutations were also analyzed for their ability to compete with Ad3 virus for attachment (FIG. 3C) and infection (FIG. 3D).

B1: D261N (protein)
chain: MKVSALKEKVSALKEKVSALKEKVSALKEKVSALKEGSGGGSGGGSGGGSNSIALKNNTLWTGPKPEANCIIEYGKQNPDSKLTLILVKNGGIVNGYVTLMGASDYVNTLFKNKNVSINVELYFDATGHILPDSSSLKTDLELKYKQTADFSARGFMPSTTAYPFVLPNAGTHNENYIFGQCYYKASNGALFPLEVTVMLNKRLPDSRTSYVMTFLWSLNAGLAPETTQATLITSPFTFSYIREDD
Competition of Ad3-GFP infection based on GFP expression: least reduced
